Test results: article PMC12519261
Where no end group is shown, it is not given here.

Biological target: b1b2 domain of NRP-1 (recombinant)
Test: pull-down; Ni-NTA magnetic agarose beads coated with the b1b2 domain of NRP-1; fluorescent HLPNs incubated 1 h at room temperature with uPA added; 50 mM Tris pH 7.5, 1 M NaCl, 5 mM imidazole, 0.05% NP40; eluted with 400 mM imidazole, fluorescence of the eluate read

fold increase of binding by uPA treatment (against no uPA): 4 fold
Binder: AKRGAR-OH (also: FAM label, site not given here, conjugated to surface of HLPNs) [uPA-cleaved LinTT1 peptide with exposed CendR motif, on HLPNs]
